Columns and labels:
Test in all cases: co-IP; LUMIER in HEK293TN cells: Prot-A fusion co-transfected with Renilla luciferase fusion (AN always the luciferase fusion with the interactors); luciferase activity before (input) and after pulldown; percentage pulldown = pulldown/input x 100; empty vectors as negative control; positive if more than two times the background
[1] = target: PROTEIN KINASE SU… PROTEIN (AIK1), Prot-A fusion (Arabidopsis thaliana)
[2] = target: T1, …ONALLY CONTROLLED TUMOR PROTEIN (TCTP), Prot-A fusion (Arabidopsis thaliana, UniProt P31265 1-168); settings: partners not purified
T1 construct: Translationally controlled tumor protein, Arabidopsis thaliana, AT3G16640; CDS amplified from Col-0 cDNA; source: HEK293TN cells, transfected; not shown: Protein A (Staphylococcus aureus), N-terminal, kept
T1 sequence (looked up): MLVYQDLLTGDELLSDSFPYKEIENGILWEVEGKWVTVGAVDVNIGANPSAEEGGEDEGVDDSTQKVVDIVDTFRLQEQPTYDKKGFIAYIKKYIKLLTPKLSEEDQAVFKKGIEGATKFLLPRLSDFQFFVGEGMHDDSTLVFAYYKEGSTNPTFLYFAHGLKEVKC

[3] = target: T2, RNA BINDING PROTEIN 47B (RBP47B), Prot-A fusion (Arabidopsis thaliana, UniProt Q0WW84 1-435); settings: partners not purified
T2 construct: RBP47B, Arabidopsis thaliana, AT3G19130; CDS amplified from Col-0 cDNA; source: HEK293TN cells, transfected; not shown: Protein A (Staphylococcus aureus), N-terminal, kept
T2 sequence (looked up): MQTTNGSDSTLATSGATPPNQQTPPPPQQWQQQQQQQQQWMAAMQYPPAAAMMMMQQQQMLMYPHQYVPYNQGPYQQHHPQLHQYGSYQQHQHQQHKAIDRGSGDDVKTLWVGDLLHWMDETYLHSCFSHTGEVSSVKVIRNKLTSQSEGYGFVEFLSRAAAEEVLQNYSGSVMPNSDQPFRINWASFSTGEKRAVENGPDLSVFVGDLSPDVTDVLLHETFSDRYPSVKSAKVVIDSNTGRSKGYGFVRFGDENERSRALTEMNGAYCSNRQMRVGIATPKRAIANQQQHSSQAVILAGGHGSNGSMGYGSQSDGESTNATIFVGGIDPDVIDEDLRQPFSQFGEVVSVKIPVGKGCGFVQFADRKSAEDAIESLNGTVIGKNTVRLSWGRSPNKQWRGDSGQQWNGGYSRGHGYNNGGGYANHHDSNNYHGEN

[4] = target: T3, PO…-BINDING PROTEIN RBP47C′, Prot-A fusion (Arabidopsis thaliana, UniProt Q9SX80 1-434); settings: partners not purified
T3 construct: RBP47C′, Arabidopsis thaliana, AT1G47500; CDS amplified from Col-0 cDNA; source: HEK293TN cells, transfected; not shown: Protein A (Staphylococcus aureus), N-terminal, kept
T3 sequence (looked up): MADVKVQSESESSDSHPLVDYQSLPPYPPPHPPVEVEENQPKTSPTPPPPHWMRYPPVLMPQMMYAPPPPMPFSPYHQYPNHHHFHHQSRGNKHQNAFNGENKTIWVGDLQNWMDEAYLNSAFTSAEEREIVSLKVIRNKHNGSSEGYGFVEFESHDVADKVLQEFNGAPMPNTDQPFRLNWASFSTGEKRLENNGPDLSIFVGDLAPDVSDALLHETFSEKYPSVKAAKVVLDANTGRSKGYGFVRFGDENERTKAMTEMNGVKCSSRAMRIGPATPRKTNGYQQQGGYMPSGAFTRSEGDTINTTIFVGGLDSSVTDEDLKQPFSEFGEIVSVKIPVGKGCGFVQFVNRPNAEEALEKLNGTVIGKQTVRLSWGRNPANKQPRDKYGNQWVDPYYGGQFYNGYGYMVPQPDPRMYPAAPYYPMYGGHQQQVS

[5] = target: T4, RNA BINDING PROTEIN 47C (RBP47C), Prot-A fusion (Arabidopsis thaliana, UniProt Q9SX79 1-432); settings: partners not purified
T4 construct: RBP47C, Arabidopsis thaliana, AT1G47490; CDS amplified from Col-0 cDNA; source: HEK293TN cells, transfected; not shown: Protein A (Staphylococcus aureus), N-terminal, kept
T4 sequence (looked up): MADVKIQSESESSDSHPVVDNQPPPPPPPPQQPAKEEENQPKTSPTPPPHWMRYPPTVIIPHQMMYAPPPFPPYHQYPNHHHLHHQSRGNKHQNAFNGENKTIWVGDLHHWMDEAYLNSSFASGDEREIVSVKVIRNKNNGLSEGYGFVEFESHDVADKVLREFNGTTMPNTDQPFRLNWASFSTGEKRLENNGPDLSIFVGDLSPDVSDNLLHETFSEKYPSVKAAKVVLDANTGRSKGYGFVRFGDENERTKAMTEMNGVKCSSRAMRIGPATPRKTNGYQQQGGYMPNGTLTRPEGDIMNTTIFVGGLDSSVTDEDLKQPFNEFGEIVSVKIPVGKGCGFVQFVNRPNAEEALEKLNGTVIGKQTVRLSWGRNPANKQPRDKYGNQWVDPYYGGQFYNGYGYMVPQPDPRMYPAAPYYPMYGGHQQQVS

Sequence of PROTEIN KINASE SU… PROTEIN (AIK1), Prot-A fusion (Arabidopsis thaliana) (main, as listed by the source): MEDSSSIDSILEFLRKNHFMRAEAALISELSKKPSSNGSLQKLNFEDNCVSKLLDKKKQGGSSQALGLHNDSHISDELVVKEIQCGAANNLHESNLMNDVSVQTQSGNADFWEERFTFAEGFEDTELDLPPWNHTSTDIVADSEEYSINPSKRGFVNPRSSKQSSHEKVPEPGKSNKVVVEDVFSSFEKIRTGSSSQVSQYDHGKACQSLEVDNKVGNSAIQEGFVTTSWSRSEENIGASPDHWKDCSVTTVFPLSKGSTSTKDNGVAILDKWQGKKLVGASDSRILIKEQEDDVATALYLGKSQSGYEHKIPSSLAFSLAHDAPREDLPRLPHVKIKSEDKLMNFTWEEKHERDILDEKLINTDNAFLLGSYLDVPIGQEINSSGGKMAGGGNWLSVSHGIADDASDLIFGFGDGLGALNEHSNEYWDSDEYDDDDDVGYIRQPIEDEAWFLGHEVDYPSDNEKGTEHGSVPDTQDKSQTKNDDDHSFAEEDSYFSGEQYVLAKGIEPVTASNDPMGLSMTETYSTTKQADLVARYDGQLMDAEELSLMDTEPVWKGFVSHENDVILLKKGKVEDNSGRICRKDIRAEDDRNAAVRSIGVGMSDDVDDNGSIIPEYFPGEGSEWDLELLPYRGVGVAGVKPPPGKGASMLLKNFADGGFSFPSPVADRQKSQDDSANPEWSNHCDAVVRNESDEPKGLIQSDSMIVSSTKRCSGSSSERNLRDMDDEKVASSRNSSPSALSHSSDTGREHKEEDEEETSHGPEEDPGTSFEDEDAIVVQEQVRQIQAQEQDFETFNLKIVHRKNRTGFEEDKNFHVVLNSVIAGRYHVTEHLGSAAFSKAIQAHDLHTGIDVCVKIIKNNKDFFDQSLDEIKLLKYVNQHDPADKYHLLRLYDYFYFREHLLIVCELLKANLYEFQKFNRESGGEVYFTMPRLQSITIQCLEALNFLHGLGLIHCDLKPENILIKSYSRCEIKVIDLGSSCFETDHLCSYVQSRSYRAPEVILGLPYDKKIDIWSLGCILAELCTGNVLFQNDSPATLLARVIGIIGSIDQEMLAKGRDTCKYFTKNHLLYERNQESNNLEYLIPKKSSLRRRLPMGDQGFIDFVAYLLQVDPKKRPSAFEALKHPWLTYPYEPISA

fold change from background [1]: 223 fold
percentage pulldown [1]: 36%
fold change from background [2]: 3.12 fold
percentage pulldown [2]: 0.28%
fold change from background [3]: 3.53 fold
percentage pulldown [3]: 0.33%
fold change from background [4]: 3.07 fold
percentage pulldown [4]: 0.29%
fold change from background [5]: 4.97 fold
percentage pulldown [5]: 0.46%
B1: AN, Renilla luciferase fusion (LUMIER) (natural protein, Arabidopsis thaliana, UniProt O23702 1-636, looked up)
chain: MSKIRSSATMPHRDQPSPASPHVVTLNCIEDCALEQDSLAGVAGVEYVPLSRIADGKIESATAVLLHSLAYLPRAAQRRLRPHQLILCLGSADRAVDSTLAADLGLRLVHVDTSRAEEIADTVMALILGLLRRTHLLSRHALSASGWLGSLQPLCRGMRRCRGMVLGIVGRSVSARYLASRSLAFKMSVLYFDVPEGDEERIRPSRFPRAARRMDTLNDLLAASDVISLHCALTNDTVQILNAECLQHIKPGAFLVNTGSCQLLDDCAVKQLLIDGTIAGCALDGAEGPQWMEAWVKEMPNVLILPRSADYSEEVWMEIREKAISILHSFFLDGVIPSNTVSDEEVEESEASEEEEQSPSKHEKLAIVESTSRQQGESTLTSTEIVRREASELKESLSPGQQHVSQNTAVKPEGRRSRSGKKAKKRHSQQKYMQKTDGSSGLNEESTSRRDDIAMSDTEEVLSSSSRCASPEDSRSRKTPLEVMQESSPNQLVMSSKKFIGKSSELLKDGYVVALYAKDLSGLHVSRQRTKNGGWFLDTLSNVSKRDPAAQFIIAYRNKDTVGLRSFAAGGKLLQINRRMEFVFASHSFDVWESWSLEGSLDECRLVNCRNSSAVLDVRVEILAMVGDDGITRWID
notes: ANGUSTIFOLIA (AN), Arabidopsis thaliana, AT1G01510; CDS amplified from Col-0 cDNA; in the dimerisation test the second copy must have been the N-terminal protein A fusion (surmised from the LUMIER format); also called wild-type AN; source: HEK293TN cells, transfected; not shown: Renilla reniformis luciferase, N-terminal, kept

From paper PMC5469197, “ANGUSTIFOLIA, a Plant Homolog of CtBP/BARS Localizes to Stress Granules and Regulates Their Formation” (Frontiers in Plant Science, 2017)
